Tests used:
Rpl10 = assay: tandem-affinity purification of Sqt1-TAP; type: binding, S. cerevisiae; details: TAP from yeast cell lysate, EGTA eluate, Coomassie
Experimental: (§1) Cells expressing Sqt1-TAP and NTAP-Rrb1 were grown at 30 °C in 4 l yeast extract peptone dextrose (YPD) medium to an optical density (OD600) of 2. Cell extracts were obtained by glass bead lysis with a Pulverisette (Fritsch). TAPs were performed in a buffer containing 50 mM Tris-HCl (pH 7.5), 100 mM NaCl, 1.5 mM MgCl2, 5% glycerol and 0.1% NP-40 as described. The EGTA eluates were precipitated by the addition of TCA to a final concentration of 10% and, after an acetone wash, dissolved in 80 μl of 3 × SDS sample buffer. Protein samples were separated on NuPAGE 4–12% Bis-Tris 12-well gels (Novex), run in 1 × MES SDS running buffer, and subsequently stained with Brilliant Blue G Colloidal Coomassie (Sigma).

Rpl3 = assay: tandem-affinity purification of NTAP-Rrb1; type: binding, S. cerevisiae; details: TAP from yeast cell lysate, EGTA eluate, Coomassie
Experimental: as §1

B1: Sqt1-TAP: C-terminally TAP-tagged Sqt1 (protein)
chain: MEPQEEFITTEEVEQEIVPTVEVEQDVPVDIEGENDDDDEMMNDDEEALEVDMSNNSLTYFDKHTDSVFAIGHHPNLPLVCTGGGDNLAHLWTSHSQPPKFAGTLTGYGESVISCSFTSEGGFLVTADMSGKVLVHMGQKGGAQWKLASQMQEVEEIVWLKTHPTIARTFAFGATDGSVWCYQINEQDGSLEQLMSGFVHQQDCSMGEFINTDKGENTLELVTCSLDSTIVAWNCFTGQQLFKITQAEIKGLEAPWISLSLAPETLTKGNSGVVACGSNNGLLAVINCNNGGAILHLSTVIELKPEQDELDASIESISWSSKFSLMAIGLVCGEILLYDTSAWRVRHKFVLEDSVTKLMFDNDDLFASCINGKVYQFNARTGQEKFVCVGHNMGVLDFILLHPVANTGTEQKRKVITAGDEGVSLVFEVPN
modifications: left off: TAP, C-terminal, kept
Rpl10
  co-enrichment of Rpl10: good co-enrichment of Rpl10

B2: NTAP-Rrb1: N-terminally TAP-tagged Rrb1 (protein)
chain: MSKRSIEVNEEQDRVVSAKTESHSVPAIPASEEQDAPKNDLEEQLSDEFDSDGEIIEIDGDDEINDEDDLRKKQEEAETLVQKDQSEGNKEKIQELYLPHMSRPLGPDEVLEADPTVYEMLHNVNMPWPCLTLDVIPDTLGSERRNYPQSILLTTATQSSRKKENELMVLALSNLAKTLLKDDNEGEDDEEDDEDDVDPVIENENIPLRDTTNRLKVSPFAISNQEVLTATMSENGDVYIYNLAPQSKAFSTPGYQIPKSAKRPIHTVKNHGNVEGYGLDWSPLIKTGALLSGDCSGQIYFTQRHTSRWVTDKQPFTVSNNKSIEDIQWSRTESTVFATAGCDGYIRIWDTRSKKHKPAISVKASNTDVNVISWSDKIGYLLASGDDNGTWGVWDLRQFTPSNADAVQPVAQYDFHKGAITSIAFNPLDESIVAVGSEDNTVTLWDLSVEADDEEIKQQAAETKELQEIPPQLLFVHWQKEVKDVKWHKQIPGCLVSTGTDGLNVWKTISV
modifications: left off: NTAP (proteinA-TEV-CBP-Flag), N-terminal, kept
Rpl3
  co-purification of Rpl3: robust co-purification of Rpl3

Reference: PMC4491177, “Co-translational capturing of nascent ribosomal proteins by their dedicated chaperones” (Nature Communications, 2015)
